Reference: paper PMC3210322 (Nature structural & molecular biology, 2011)
Positions count from the first letter of the chain named. Names and notes keep the numbering of the source.

B1: α4-N79C, not HA-tagged (natural protein)
chain: MSGYDRALSIFSPDGHIFQVEYALEAVKRGTCAVGVKGKNCVVLGCERRSTLKLQDTRITPSKVSKIDSHVVLSFSGLCADSRILIEKARVEAQSHRLTLEDPVTVEYLTRYVAGVQQRYTQSGGVRPFGVSTLIAGFDPRDDEPKLYQTEPSGIYSSWSAQTIGRNSKTVREFLEKNYDRKEPPATVEECVKLTVRSLLEVVQTGAKNIEITVVKPDSDIVALSSEEINQYVTQIEQEKQEQQEQDKKKKSNH
B2: α4-C32A C46A N79C (natural protein)
chain: B1 chain with C32A, C46A

Molecular target: Rpt2-L437C (S. cerevisiae, UniProt P40327 1-437, L437C)
Test: cross-linking

Sequence of Rpt2-L437C (P40327 whole entry L437C): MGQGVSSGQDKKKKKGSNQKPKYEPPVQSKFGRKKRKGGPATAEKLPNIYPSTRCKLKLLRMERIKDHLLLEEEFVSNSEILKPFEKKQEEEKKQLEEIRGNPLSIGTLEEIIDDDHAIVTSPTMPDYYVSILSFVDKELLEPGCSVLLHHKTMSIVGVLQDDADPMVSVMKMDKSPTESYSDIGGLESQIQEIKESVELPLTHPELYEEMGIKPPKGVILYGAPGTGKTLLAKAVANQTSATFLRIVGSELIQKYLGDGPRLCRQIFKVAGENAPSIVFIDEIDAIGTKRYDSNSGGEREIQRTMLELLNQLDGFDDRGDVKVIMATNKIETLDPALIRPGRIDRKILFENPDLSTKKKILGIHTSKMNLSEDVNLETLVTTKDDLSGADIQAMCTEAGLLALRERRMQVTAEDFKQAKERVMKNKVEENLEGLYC

Row | Binder | binding result
1 | B1 | binds
2 | B2 | binds
